What was measured:
Details in all cases: protein: recombinant; hairpin, 8 bp stem, 9 nt loop
[1] = molecular target: T1, FUS-RRM (Homo sapiens, UniProt P35637 282-374); test: ITC; average over three sequential sites; ITC: 10 mM HEPES pH 7.0, 20 mM Na2SO4 (+5 mM beta-mercaptoethanol for RRM-RanBP2 constructs), 298 K, 1 mM RNA into 100 uM protein. NMR: 20 mM Na phosphate pH 6.2, 25 mM NaCl, 5% D2O (RRM) or 25 mM Na2SO4, 5 mM beta-mercaptoethanol (TAF15-RRM-RanBP2), 298 K
[2] = molecular target: TAF15-RRM-RanBP2 (Homo sapiens, UniProt Q92804 231-388); test: ITC; N = 0.8; 5 mM beta-mercaptoethanol; ITC: 10 mM HEPES pH 7.0, 20 mM Na2SO4 (+5 mM beta-mercaptoethanol for RRM-RanBP2 constructs), 298 K, 1 mM RNA into 100 uM protein. NMR: 20 mM Na phosphate pH 6.2, 25 mM NaCl, 5% D2O (RRM) or 25 mM Na2SO4, 5 mM beta-mercaptoethanol (TAF15-RRM-RanBP2), 298 K
TAF15-RRM-RanBP2, sequence (Q92804 231-388): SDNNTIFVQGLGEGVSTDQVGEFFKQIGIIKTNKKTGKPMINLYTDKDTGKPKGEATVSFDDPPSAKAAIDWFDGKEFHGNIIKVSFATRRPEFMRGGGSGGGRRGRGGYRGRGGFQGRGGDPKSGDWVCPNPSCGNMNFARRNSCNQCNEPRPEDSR

[3] = molecular target: T1, FUS-RRM; test: ITC; sequential site N1; ITC: 10 mM HEPES pH 7.0, 20 mM Na2SO4 (+5 mM beta-mercaptoethanol for RRM-RanBP2 constructs), 298 K, 1 mM RNA into 100 uM protein. NMR: 20 mM Na phosphate pH 6.2, 25 mM NaCl, 5% D2O (RRM) or 25 mM Na2SO4, 5 mM beta-mercaptoethanol (TAF15-RRM-RanBP2), 298 K
[4] = molecular target: T1, FUS-RRM; test: ITC; sequential site N2; ITC: 10 mM HEPES pH 7.0, 20 mM Na2SO4 (+5 mM beta-mercaptoethanol for RRM-RanBP2 constructs), 298 K, 1 mM RNA into 100 uM protein. NMR: 20 mM Na phosphate pH 6.2, 25 mM NaCl, 5% D2O (RRM) or 25 mM Na2SO4, 5 mM beta-mercaptoethanol (TAF15-RRM-RanBP2), 298 K
[5] = molecular target: FUS-RRM-RanBP2 (Homo sapiens, UniProt P35637 282-454); test: ITC; N = 0.7; 5 mM beta-mercaptoethanol; ITC: 10 mM HEPES pH 7.0, 20 mM Na2SO4 (+5 mM beta-mercaptoethanol for RRM-RanBP2 constructs), 298 K, 1 mM RNA into 100 uM protein. NMR: 20 mM Na phosphate pH 6.2, 25 mM NaCl, 5% D2O (RRM) or 25 mM Na2SO4, 5 mM beta-mercaptoethanol (TAF15-RRM-RanBP2), 298 K
FUS-RRM-RanBP2, sequence (P35637 282-454): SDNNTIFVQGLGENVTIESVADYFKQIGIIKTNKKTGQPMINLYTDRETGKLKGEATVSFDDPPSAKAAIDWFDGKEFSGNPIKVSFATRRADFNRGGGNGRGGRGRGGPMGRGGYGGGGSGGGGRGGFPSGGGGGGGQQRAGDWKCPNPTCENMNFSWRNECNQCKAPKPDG

[6] = molecular target: T1, FUS-RRM; test: ITC; sequential site N3; ITC: 10 mM HEPES pH 7.0, 20 mM Na2SO4 (+5 mM beta-mercaptoethanol for RRM-RanBP2 constructs), 298 K, 1 mM RNA into 100 uM protein. NMR: 20 mM Na phosphate pH 6.2, 25 mM NaCl, 5% D2O (RRM) or 25 mM Na2SO4, 5 mM beta-mercaptoethanol (TAF15-RRM-RanBP2), 298 K
[7] = molecular target: TAF15-RRM (Homo sapiens, UniProt Q92804 231-323); test: ITC; N = 0.72; ITC: 10 mM HEPES pH 7.0, 20 mM Na2SO4 (+5 mM beta-mercaptoethanol for RRM-RanBP2 constructs), 298 K, 1 mM RNA into 100 uM protein. NMR: 20 mM Na phosphate pH 6.2, 25 mM NaCl, 5% D2O (RRM) or 25 mM Na2SO4, 5 mM beta-mercaptoethanol (TAF15-RRM-RanBP2), 298 K
TAF15-RRM, sequence (Q92804 231-323): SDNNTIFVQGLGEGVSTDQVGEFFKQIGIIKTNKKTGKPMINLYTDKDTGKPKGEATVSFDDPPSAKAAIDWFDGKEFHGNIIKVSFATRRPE

T1 sequence (P35637 282-374): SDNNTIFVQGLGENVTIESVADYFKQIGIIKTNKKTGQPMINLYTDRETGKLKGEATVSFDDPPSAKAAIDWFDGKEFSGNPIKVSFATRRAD

CGUAUCUUUAACUACUCAAGAUACG (structured_RNA) [SON stem-loop RNA] gave a Kd [1] of 11 µM, a Kd [2] of 6 ± 0.7 µM and a Kd [3] of 10 ± 1 µM. The Kd [4] was 13 ± 1.6 µM, the Kd [5] was 8 ± 0.7 µM and the Kd [6] was 12 ± 0.3 µM. For the same binder, the Kd [7] was 10 ± 1 µM.
